According to patent US20170183396A1 (published 2017):

B1: CAN9G1 monoclonal antibody (antibody, V domains shown)
VH: ERQLVESGGGVVKPGESLKLSCAASGFAFSSYDMSWVRQTPEKRLEWVAYSSRGGGFTYYPDTVKGRFTIARDNAKNTLHLQMSSLKSEDTAMYYCATHYYGPLYAMDYWGQGTSVTVSS
VL: QLVLTQSSSASFSLGASAKLTCTLSSQHSTFTIEWYQQQPLKAPKYVMELKKDGSHSTGDGIPDRFSGSSSGADRYLWISNIQPEDEAMYICGVGDTIKEQFVYVFGGGTKVTVL

Assays:
[1] = molecular target: ZEBOV GP (Zaire ebolavirus) (UniProt Q05320); assay: affinity for recombinant ZEBOV GP; method not described
ZEBOV GP = molecular target: T1, ZEBOV GP (Zaire ebolavirus, UniProt Q05320 33-650); assay: as above
T1 sequence: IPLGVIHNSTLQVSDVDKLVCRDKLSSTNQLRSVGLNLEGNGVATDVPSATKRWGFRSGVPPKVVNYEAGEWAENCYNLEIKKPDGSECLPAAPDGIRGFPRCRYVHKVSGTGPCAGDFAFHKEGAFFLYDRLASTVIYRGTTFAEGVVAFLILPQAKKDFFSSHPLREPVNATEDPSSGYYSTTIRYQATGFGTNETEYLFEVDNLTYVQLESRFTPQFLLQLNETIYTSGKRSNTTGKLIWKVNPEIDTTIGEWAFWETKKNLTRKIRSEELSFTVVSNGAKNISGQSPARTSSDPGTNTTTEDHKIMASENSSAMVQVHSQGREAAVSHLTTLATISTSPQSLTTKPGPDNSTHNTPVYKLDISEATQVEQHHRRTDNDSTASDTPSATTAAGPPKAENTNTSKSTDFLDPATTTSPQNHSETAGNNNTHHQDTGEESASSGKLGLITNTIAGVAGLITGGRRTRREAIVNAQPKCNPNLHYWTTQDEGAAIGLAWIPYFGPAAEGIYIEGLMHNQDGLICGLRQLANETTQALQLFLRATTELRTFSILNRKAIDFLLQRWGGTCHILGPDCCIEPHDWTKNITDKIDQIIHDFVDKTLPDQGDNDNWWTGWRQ

Molecule	Kd [1] [nM]	Kd (ZEBOV GP) [nM]
USAMRIID mAb 13F6 (antibody)	0.33	–
B1	–	0.27
